The source of these data is publication PMC12412787.

The data set deals with T1, Pyl1p (Yarrowia lipolytica, UniProt Q6CBN1 1-600).
T1 sequence: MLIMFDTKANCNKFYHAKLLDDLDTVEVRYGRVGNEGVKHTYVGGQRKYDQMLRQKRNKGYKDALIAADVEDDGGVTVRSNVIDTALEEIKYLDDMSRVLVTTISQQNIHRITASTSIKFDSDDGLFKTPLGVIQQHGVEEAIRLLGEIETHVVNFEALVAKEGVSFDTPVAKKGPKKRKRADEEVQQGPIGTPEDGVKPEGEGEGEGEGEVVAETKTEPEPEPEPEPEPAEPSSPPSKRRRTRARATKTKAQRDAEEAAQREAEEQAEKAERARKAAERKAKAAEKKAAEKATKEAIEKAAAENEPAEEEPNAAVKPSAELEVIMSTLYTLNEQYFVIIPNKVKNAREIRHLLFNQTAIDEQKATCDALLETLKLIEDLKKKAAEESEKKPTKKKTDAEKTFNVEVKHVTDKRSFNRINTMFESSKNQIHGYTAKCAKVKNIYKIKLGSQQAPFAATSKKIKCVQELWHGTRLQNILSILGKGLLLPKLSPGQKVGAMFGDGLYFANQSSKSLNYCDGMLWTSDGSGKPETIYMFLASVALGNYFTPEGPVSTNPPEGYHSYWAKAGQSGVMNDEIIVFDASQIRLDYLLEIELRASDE
Put plainly: EMSA. A general note: A gel shift assay detects complexes by their altered migration in electrophoresis.

B1: dsTEL probe (YlipTEL_G/YlipTEL_C) (dsDNA)
DNA 1: TTAGTCAGGGTTAGTCAGGG
DNA 2: CCCTGACTAACCCTGACTAA
As to B1, the binding result is on record as “binds”.
